# Patent US20150141489
# Biological target: recombinant GST-S6 (UniProt P62753)
substance,measurement,value
T7-tagged mouse S6K1 Isoform-2 (Iso-2),in vitro kinase assay (phospho-S6 S240-244 blot),have no kinase activity
